Results reported in patent US20240301429A1 (RSEM LIMITED PARTNERSHIP, published 2024).
Positions count from the first letter of the chain named. In names and notes the source's numbering stands.

T1: SEMA3A-FC (R&D systems) (Homo sapiens (Human), UniProt Q14563 22-771)
T1 construct: Bought reagent; not shown: Fc portion of the bought fusion, detected with anti-human IgG
T1 sequence: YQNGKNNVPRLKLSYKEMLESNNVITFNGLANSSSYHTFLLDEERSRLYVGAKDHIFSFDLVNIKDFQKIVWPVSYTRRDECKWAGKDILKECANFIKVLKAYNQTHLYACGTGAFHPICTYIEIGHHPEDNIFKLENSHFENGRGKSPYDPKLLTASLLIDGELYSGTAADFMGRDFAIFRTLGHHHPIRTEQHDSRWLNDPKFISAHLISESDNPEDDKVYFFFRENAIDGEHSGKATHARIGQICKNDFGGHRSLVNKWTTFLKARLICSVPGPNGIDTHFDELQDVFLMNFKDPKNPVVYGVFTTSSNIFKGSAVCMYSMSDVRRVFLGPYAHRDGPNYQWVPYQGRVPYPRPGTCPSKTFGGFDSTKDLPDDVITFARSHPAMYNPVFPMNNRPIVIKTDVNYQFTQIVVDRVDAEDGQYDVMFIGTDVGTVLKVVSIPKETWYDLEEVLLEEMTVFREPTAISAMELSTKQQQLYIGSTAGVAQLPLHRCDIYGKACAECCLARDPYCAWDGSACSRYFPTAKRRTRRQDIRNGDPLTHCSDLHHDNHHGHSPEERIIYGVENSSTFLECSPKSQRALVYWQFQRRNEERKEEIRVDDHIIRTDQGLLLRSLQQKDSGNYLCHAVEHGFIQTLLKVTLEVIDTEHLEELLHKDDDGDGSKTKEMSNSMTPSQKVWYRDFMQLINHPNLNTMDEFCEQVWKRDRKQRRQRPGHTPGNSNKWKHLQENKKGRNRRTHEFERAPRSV

B1: NRP1 trap Z (receptor)
chain: FRNDKCGDTIKIESPGYLTSPGYPHSYHPSEKCEWLIQAPDPYQRIMINFNPHFDLEDRDCKYDYVEVFDGENENGHFRGKFCGKIAPPPVVSSGPFLFIKFVSDYETHGAGFSIRYELFKRGPECSQNYTTPSGVIKSPGFPEKYPNSLECTYIVFAPKMSEIILEFESFDLEPDSNPPGGMFCRYDRLEIWDGFPDVGPHIGRYCGQKTPGRIRSSSGILSMVFYTDSAIAKEGFSANYSVLQSSVSEDFKCMEALGMESGEIHSDQITASSQYSTNWSAERSRLNYPENGWTPGKKSYREWIQVDLGLLRFVTAVGTQGAISKETKKKYYVKTYKIDVSSNGEDWITIKEGNKPVLFQGNTNPTDVVVAVFPKPLITRFVRIKPATWETGISMRFEVYGCKITDYPCSGMLGMVSGLISDSQITSSNQGDRNWMPENIRLVTSRSGWALPPAPHSYINEWLQIDLGEEKIVRGIIIQGGKHRENKVFMRKFKIGYSNNGSDWKMIMDDSKRKAKSFEGNNNYDTPELRTFPALSTRFIRIYPERATHGGLGLRMELLGCEVEAPTAGPTTPNGNLVDECDDDQANCHSGTGDDFQLTGGTTVLATEKPTVIDSTIQSEFPTYGFNCEFGWGSHKTFCHWEHDNHVQLKWSVLTSKTGPIQDHTGDGNFIYSQADENQKGKVARLVSPVVYSQNSAHCMTFWYHMSGSHVGTLRVKLRYQKPEEYDQLVWMAIGHQGDHWKEGRVLLHKSLKLYQVIFEGEIGKGNLGGIAVDDISINNHISQEDCAKPADLDKKNPEIKIDETGSTPGYEGEGEGDKNISRKPGNVLKTLDPRSGSKENLYFQG
notes: a1a2-b1b2-c with E319K, D320K (held in the entry); Signal peptide not trimmed
B2: NRP1 trap AJ (receptor)
chain: FRNDKRGPECSQNYTTPSGVIKSPGFPEKYPNSLECTYIVFAPKMSEIILEFESFDLEPDSNPPGGMFCRYDRLEIWDGFPDVGPHIGRYCGQKTPGRIRSSSGILSMVFYTDSAIAKEGFSANYSVLQSSVSEDFKCMEALGMESGEIHSDQITASSQYSTNWSAERSRLNYPENGWTPGEDSYREWIQVDLGLLRFVTAVGTQGAISKETKKKYYVKTYKIDVSSNGEDWITIKEGNKPVLFQGNTNPTDVVVAVFPKPLITRFVRIKPATWETGISMRFEVYGCKITDYPCSGMLGMVSGLISDSQITSSNQGDRNWMPENIRLVTSRSGWALPPAPHSYINEWLQIDLGEEKIVRGIIIQGGKHRENKVFMRKFKIGYSNNGSDWKMIMDDSKRKAKSFEGNNNYDTPELRTFPALSTRFIRIYPERATHGGLGLRMELLGCEVEAPTAGPTTPNGNLVDECDDDQANCHSGTGDDFQLTGGTTVLATEKPTVIDSTIQSEFPTYGFNCEFGWGSHKTFCHWEHDNHVQLKWSVLTSKTGPIQDHTGDGNFIYSQADENQKGKVARLVSPVVYSQNSAHCMTFWYHMSGSHVGTLRVKLRYQKPEEYDQLVWMAIGHQGDHWKEGRVLLHKSLKLYQVIFEGEIGKGNLGGIAVDDISINNHISQEDCAKPADLDKKNPEIKIDETGSTPGYEGEGEGDKNISRKPGNVLKTLDPRSGSKENLYFQG
notes: a2b1b2c; Signal peptide not trimmed
B3: NRP1 trap AK (receptor)
chain: FRNDKRGPECSQNYTTPSGVIKSPGFPEKYPNSLECTYIVFAPKMSEIILEFESFDLEPDSNPPGGMFCRYDRLEIWDGFPDVGPHIGRYCGQKTPGRIRSSSGILSMVFYTDSAIAKEGFSANYSVLQSSVSEDFKCMEALGMESGEIHSDQITASSQYSTNWSAERSRLNYPENGWTPGEDSYREWIQVDLGLLRFVTAVGTQGAISKETKKKYYVKTYKIDVSSNGEDWITIKEGNKPVLFQGNTNPTDVVVAVFPKPLITRFVRIKPATWETGISMRFEVYGCKITDYPCSGMLGMVSGLISDSQITSSNQGDRNWMPENIRLVTSRSGWALPPAPHSYINEWLQIDLGEEKIVRGIIIQGGKHRENKVFMRKFKIGYSNNGSDWKMIMDDSKRKAKSFEGNNNYDTPELRTFPALSTRFIRIYPERATHGGLGLRMELLGCRSGSKENLYFQG
notes: a2b1b2; Signal peptide not trimmed
B4: NRP1 trap M (receptor)
chain: FRNDKCGDTIKIESPGYLTSPGYPHSYHPSEKCEWLIQAPDPYQRIMINFNPHFDLEDRDCKYDYVEVFDGENENGHFRGKFCGKIAPPPVVSSGPFLFIKFVSDYETHGAGFSIRYELFKRGPECSQNYTTPSGVIKSPGFPEKYPNSLECTYIVFAPKMSEIILEFESFDLEPDSNPPGGMFCRYDRLEIWDGFPDVGPHIGRYCGQKTPGRIRSSSGILSMVFYTDSAIAKEGFSANYSVLQSSVSEDFKCMEALGMESGEIHSDQITASSQYSTNWSAERSRLNYPENGWTPGEDSYREWIQVDLGLLRFVTAVGTQGAISKETKKKYYVKTYKIDVSSNGEDWITIKEGNKPVLFQGNTNPTDVVVAVFPKPLITRFVRIKPATWETGISMRFEVYGCRSGSKENLYFQG
notes: a1a2-b1; Signal peptide not trimmed
B5: NRP1 trap AD (receptor)
chain: B4 chain with D299K
notes: Signal peptide not trimmed
B6: NRP1 trap P (receptor)
chain: B4 chain with Y276A
notes: a1a2-b1 with Y297A (held in the entry); Signal peptide not trimmed
B7: NRP1 trap AE (receptor)
chain: FRNDKCGDTIKIESPGYLTSPGYPHSYHPSEKCEWLIQAPDPYQRIMINFNPHFDLEDRDCKYDYVEVFDGENENGHFRGKFCGKIAPPPVVSSGPFLFIKFVSDYETHGAGFSIRYELFKRGPECSQNYTTPSGVIKSPGFPEKYPNSLECTYIVFAPKMSEIILEFESFDLEPDSNPPGGMFCRYDRLEIWDGFPDVGPHIGRYCGQKTPGRIRSSSGILSMVFYTDSAIAKEGFSANYSVLQSSVSEDFKCMEALGMESGEIHSDQITASSQYSTNWSAERSRLNYPENGWTPGEKSYREWIQVDLGLLRFVTAVGTQGAISKETKKKYYVKTYKIDVSSNGEDWITIKEGNKPVLFQGNTNPTDVVVAVFPKPLITRFVRIKPATWETGISMRFEVYGCKITDYPCSGMLGMVSGLISDSQITSSNQGDRNWMPENIRLVTSRSGWALPPAPHSYINEWLQIDLGEEKIVRGIIIQGGKHRENKVFMRKFKIGYSNNGSDWKMIMDDSKRKAKSFEGNNNYDTPELRTFPALSTRFIRIYPERATHGGLGLRMELLGCRSGSKENLYFQG
notes: Signal peptide not trimmed
B8: NRP1 trap Q (receptor)
chain: B7 chain with Y276A, K299D
notes: a1a2-b1b2 with Y297A (held in the entry); Signal peptide not trimmed
B9: NRP1 trap AF (receptor)
chain: FRNDKCGDTIKIESPGYLTSPGYPHSYHPSEKCEWLIQAPDPYQRIMINFNPHFDLEDRDCKYDYVEVFDGENENGHFRGKFCGKIAPPPVVSSGPFLFIKFVSDYETHGAGFSIRYELFKRGPECSQNYTTPSGVIKSPGFPEKYPNSLECTYIVFAPKMSEIILEFESFDLEPDSNPPGGMFCRYDRLEIWDGFPDVGPHIGRYCGQKTPGRIRSSSGILSMVFYTDSAIAKEGFSANYSVLQSSVSEDFKKITDYPCSGMLGMVSGLISDSQITSSNQGDRNWMPENIRLVTSRSGWALPPAPHSYINEWLQIDLGEEKIVRGIIIQGGKHRENKVFMRKFKIGYSNNGSDWKMIMDDSKRKAKSFEGNNNYDTPELRTFPALSTRFIRIYPERATHGGLGLRMELLGCEVEAPTAGPTTPNGNLVDECDDDQANCHSGTGDDFQLTGGTTVLATEKPTVIDSTIQSEFPTYGFNCEFGWGSHKTFCHWEHDNHVQLKWSVLTSKTGPIQDHTGDGNFIYSQADENQKGKVARLVSPVVYSQNSAHCMTFWYHMSGSHVGTLRVKLRYQKPEEYDQLVWMAIGHQGDHWKEGRVLLHKSLKLYQVIFEGEIGKGNLGGIAVDDISINNHISQEDCAKPADLDKKNPEIKIDETGSTPGYEGEGEGDKNISRKPGNVLKTLDPRSGSKENLYFQG
notes: a1a2b2c, deleted aa 281-430 and 857-923; The mature column prints 'About 22-429 and 431-856', against 1-280 and 431-856 in the column with signal peptide; Signal peptide not trimmed
B10: NRP1 trap X (receptor)
chain: FRNDKCGDTIKIESPGYLTSPGYPHSYHPSEKCEWLIQAPDPYQRIMINFNPHFDLEDRDCKYDYVEVFDGENENGHFRGKFCGKIAPPPVVSSGPFLFIKFVSDYETHGAGFSIRYELFKRGPECSQNYTTPSGVIKSPGFPEKYPNSLECTYIVFAPKMSEIILEFESFDLEPDSNPPGGMFCRYDRLEIWDGFPDVGPHIGRYCGQKTPGRIRSSSGILSMVFYTDSAIAKEGFSANYSVLQSSVSEDFKCMEALGMESGEIHSDQITASSQASTNWSAERSRLNYPENGWTPGEDSYREWIQVDLGLLRFVTAVGTQGAISKETKKKYYVKTYKIDVSSNGEDWITIKEGNKPVLFQGNTNPTDVVVAVFPKPLITRFVRIKPATWETGISMRFEVYGCKITDYPEVEAPTAGPTTPNGNLVDECDDDQANCHSGTGDDFQLTGGTTVLATEKPTVIDSTIQSEFPTYGFNCEFGWGSHKTFCHWEHDNHVQLKWSVLTSKTGPIQDHTGDGNFIYSQADENQKGKVARLVSPVVYSQNSAHCMTFWYHMSGSHVGTLRVKLRYQKPEEYDQLVWMAIGHQGDHWKEGRVLLHKSLKLYQVIFEGEIGKGNLGGIAVDDISINNHISQEDCAKPADLDKKNPEIKIDETGSTPGYEGEGEGDKNISRKPGNVLKTLDPRSGSKENLYFQG
notes: a1a2-b1-c with Y297A (held in the entry); Signal peptide not trimmed

Target: T1, SEMA3A-FC (R&D systems)
Assay: saturation binding, trap coated on plate, SEMA3A-FC titrated, anti-human IgG-HRP chemiluminescence
Protocol: Sema 3A and AP-VEGF₁₆₅ binding assays. Saturation curves for the determinations of KD of binding to SEMA 3A or VEGF165 were obtained as follow. Wells of high protein binding 96 well plates (Maxisorp, Nunc) were coated with purified traps diluted in PBS and blocked afterward with binding buffer (PBS containing 2% casein and 0.05% Tween 20). The SEMA3A-FC (R&D systems) or AP-VEGF165 ligands were diluted in binding buffer over an extensive range of concentrations and added to wells. Following an overnight incubation, wells were washed with PBS containing 0.05% tween. Bound SEMA3a-FC was detected using an HRP-linked anti-Human IgG (Biorad) and ECL substrate (Pierce). Alternatively, bound AP-VEGF165 was detected using CPD star substrate (Roche). The Chemiluminescent signal was acquired on a TECAN reader. Dissociation constant (KD) were determined by non-linear curve fitting using the Graph Pad prism software.

Binder | Kd [nM] | binding result
B1 | 4.44 | –
B2 | 2.4 | –
B3 | 4.4 | –
B4 | 0.95 | –
B5 | – | no binding
B6 | – | no binding
B7 | – | no binding
B8 | – | no binding
B9 | – | no binding
B10 | – | no binding
